Test results from PMC8932645.
No end group written: not given here. *: point of attachment. Palmitoyl = CCCCCCCCCCCCCCCC(=O)*

Assays:
[1] = target: GAS1 ectodomain (GAS1-Ecto), FLAG-HaloTag7-tagged (human) (UniProt P54826); experiment: ITC
[2] = target: Xenopus laevis PTCH1 (residues 1–1178) (Xenopus laevis); experiment: native gel or EMSA

Chain of UniProt P54826 (P54826 40-317): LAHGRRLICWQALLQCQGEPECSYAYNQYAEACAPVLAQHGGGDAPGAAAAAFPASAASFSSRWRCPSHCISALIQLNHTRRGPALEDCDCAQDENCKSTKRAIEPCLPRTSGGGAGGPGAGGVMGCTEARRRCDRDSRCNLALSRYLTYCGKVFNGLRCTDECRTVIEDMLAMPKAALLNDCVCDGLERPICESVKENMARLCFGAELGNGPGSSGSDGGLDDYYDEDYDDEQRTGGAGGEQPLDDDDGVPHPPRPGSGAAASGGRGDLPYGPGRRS

| Kd [1] | percent of SHH transferred from GAS1 to an equimolar amount of PTCH1 [2] | Molecule |
| --- | --- | --- |
| 3.84 µM |  | palmitoylated SHH effector peptide (EP, SHH residues 24–45) |
| 34.6 µM |  | octanoylated SHH effector peptide (EP) |
|  | > 50% | dually lipidated Sonic hedgehog (SHH) (from UniProt Q15465 24-197) (ligand) |
| 3.72 µM |  | Palmitoyl-SGPGRGFGK [truncated, palmitoylated SHH EP (9aa, residues 24–32)] |
